How the values were obtained:
Type in all cases: biochemical
P1 Arg oligopeptide = assay: Competing oligopeptide substrate library; conditions: same conditions
Protocol: The specificities of the MASP-1 and MASP-2 CCP1-CCP2-SP fragments were tested on a competing oligopeptide library applying the method described before (Antal, 2001).
To further investigate the range of substrate specificity and relative specific activities of MASP-1 and MASP-2 we applied a competing oligopeptide substrate library. (Antal, 2001). This library contains a mixture of seven oligopeptides (each 13 amino acids in length) with different cleavage sites (P1) for both trypsin and chymotrypsin-like enzymes (His-Ala-Ala-Pro-Xxx-Ser-Ala-Asp-Ile-Gln-Ile-Asp-Ile, SEQ ID NO:18, where Xxx could be Lys, Arg, Tyr, Leu, Phe, Trp or Pro). The individual peptide substrates compete for the protease under investigation, in our cases for either the MASP-1 CCP1-CCP2-SP or the MASP-2 CCP1-CCP2-SP fragment. […] The MASP-1 catalytic fragment (CCP1-CCP2-SP) exerted a substantially larger activity on the Arg oligopeptide substrate than the MASP-2 fragment (FIG. 7). […] MASP-2 also preferred the Arg substrate to the Lys one, but the degree of preference was much less than that of MASP-1. A very similar specificity profile was obtained for trypsin in this oligopeptide library system.

C1-inhibitor = molecular target: T1, C1-inhibitor (Homo sapiens, UniProt P05155); assay: Rate of SDS stable complex formation of 125I-labelled MASP fragments with C1-inhibitor
T1 construct: Purification of C1-inh and Alpha-2-Macroglobulin; from tissue
T1 sequence (P05155 23-500): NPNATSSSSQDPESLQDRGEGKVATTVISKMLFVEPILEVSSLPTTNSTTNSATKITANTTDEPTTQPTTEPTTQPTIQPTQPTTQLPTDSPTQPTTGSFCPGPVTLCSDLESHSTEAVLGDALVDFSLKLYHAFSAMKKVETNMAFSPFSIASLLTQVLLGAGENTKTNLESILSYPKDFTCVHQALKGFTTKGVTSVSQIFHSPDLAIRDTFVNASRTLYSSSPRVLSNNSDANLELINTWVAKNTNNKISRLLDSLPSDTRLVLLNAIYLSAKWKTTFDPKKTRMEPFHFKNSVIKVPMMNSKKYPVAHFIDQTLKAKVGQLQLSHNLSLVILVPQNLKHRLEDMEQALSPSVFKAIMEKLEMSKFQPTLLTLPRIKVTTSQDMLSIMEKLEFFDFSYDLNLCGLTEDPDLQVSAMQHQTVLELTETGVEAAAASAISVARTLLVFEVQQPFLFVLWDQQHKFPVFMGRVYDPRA
Protocol: To assess the rate of SDS stable complex formation between the MASP-1 and MASP-2 CCP1-CCP2-SP fragments and C1-inhibitor, the ^125I-labelled MASP fragments at concentrations ranging between 30-100 nM were incubated with 100-350 nM C1-inhibitor at 37° C. in 20 mM HEPES, 140 mM NaCl, pH 7.4 for 40 minutes. Typically 11-13 samples were taken at varying time periods. The reactions were stopped by reducing sample buffer containing 0.125 M Tris, 4.8% SDS, 8 M urea 20% glycerol, 720 mM mercaptoethanol, 0.02% bromophenol blue, pH6.8. The samples were further incubated at 37° C. for 30 minutes and run on reducing SDS-PAGE. Cleavages rates were visualized by means of autoradiography and the diminution of the reacted MASP chain was quantified using a GEL DOC 1000 instrument and Molecular Analyst Software for densitometric calculations (Bio-Rad, Hercules, Calif., USA). The kinetic constants were calculated assuming irreversible inhibition proceeded by reversible enzyme-inhibitor complex formation. Using steady-state approximation and neglecting the starting enzyme concentration compared to the starting inhibitor concentration ([I0]>>[E0]) the data was regressed on the following equation using non-linear regression methods: [E]=[E0]exp(−kobst); kobs=k2[I0]/(Ki+[I0]), where kobs is the observed pseudo-first order rate of reaction, k2 is the rate of irreversible enzyme-inhibitor complex formation and Ki is the inhibitory constant.

[1] = Autoactivation of MASP fragments followed on reducing SDS-PAGE; conditions: after renaturation / purification
Text: The catalytic region of MASP-1 and MASP-2, consisting of the two complement control protein modules and the serine protease domain (CCP1-CCP2-SP) (FIG. 3.) was expressed in E. coli BL-21 cells using the pET-17b expression vector. In the case of MASP-2, truncated fragments of the catalytic region (the serine protease domain with one CCP module and the serine protease domain alone) (FIG. 3) were also expressed in the same expression system. Since the recombinant proteins accumulated as inclusion bodies inside the bacterial cells, renaturation procedures were needed to restore the native, folded structure (see Materials and Methods). The renatured recombinant proteins were purified by ion exchange chromatography on Q-Sepharose Fast Flow and Mono-S columns. The renaturation and the purification procedures were followed by SDS-PAGE and the purified proteins were subjected to N-terminal sequencing. Before renaturation the inclusion body proteins yielded single bands on the reducing SDS-PAGE corresponding to the zymogen form of the enzymes. […] The MASP-1 CCP1-CCP2-SP fragment co-purified with a minor contaminant, which migrated on SDS-PAGE as a band of 24 kDa under reducing and at 39 kDa under non-reducing conditions. […] The cleavage occurred at the Arg^504-Asp^505 bond removing the histidine from the catalytic triad and thus causing the loss of its enzymatic activity. […]

B1: MASP-1γB: E. coli-expressed, refolded human MASP-1 CCP1-CCP2-SP fragment, Gly298 to Asn699 with N-terminal Ala-Ser-Met-Thr tag (protein)
chain 1: ASMTGNECPELQPPVHGKIEPSQAKYFFKDQVLVSCDTGYKVLKDNVEMDTFQIECLKDGTWSNKIPTCKIVDCRAPGELEHGLITFSTRNNLTTYKSEIKYSCQEPYYKMLNNNTGIYTCSAQGVWMNKVLGRSLPTCLPVCGLPKFSRKLMAR
chain 2: IFNGRPAQKGTTPWIAMLSHLNGQPFCGGSLLGSSWIVTAAHCLHQSLDPEDPTLRDSDLLSPSDFKIILGKHWRLRSDENEQHLGVKHTTLHPQYDPNTFENDVALVELLESPVLNAFVMPICLPEGPQQEGAMVIVSGWGKQFLQRFPETLMEIEIPIVDHSTCQKAYAPLKKKVTRDMICAGEKEGGKDACAGDSGGPMVTLNRERGQWYLVGTVSWGDDCGKKDRYGVYSYIHHNKDWIQRVTGVRN
efficiency of digestion of the P1 Arg peptide relative to the corresponding fragment of MASP-2 (P1 Arg oligopeptide): 4-5 fold
kobs with C1-inhibitor, fold less than for the MASP-2 CCP1-CCP2-SP fragment (C1-inhibitor): 5 fold
kobs, pseudo-first order rate of reaction with C1-inh (C1-inhibitor; [C1-inh] = 350 nM, 37° C., pH 7.4): 0.0014 s⁻¹
autoactivation, in words [1]: fully activated
